The target of experiment [1] is T1, recombinant Fc-tagged ectodomain of human PD1 (Acro Biosystems PD1-H5257) (human, UniProt Q15116 25-170).
T1 construct: Bought protein; not shown: Fc tag
The experiment is described as follows: SPR, Biacore 8K, single-cycle kinetics; Fc-tagged ectodomain captured on Protein G chip; 1:1 model (construct with two PD-1 arms). The method, then:
Binding of Humabody® VH constructs was measured using a single-cycle kinetics method using the BIAcore 8K instrument with 90 second sample injections with a sample concentration range of low nanomolar to high nanomolar. […] The Protein G sensor surface was regenerated with a 20 second injection of 10 mM Glycine buffer, pH 1.5 (GE Healthcare BR100354). Data were analysed using a 1:1 binding model in Biacore Insight Evaluation software, including Humabody® VH constructs with two PD-1 arms.
On the technique in general: SPR reads the build-up and loss of mass on a sensor chip optically.

Experiment [2] concerns the target T2, recombinant Fc-tagged ectodomain of human CD137 (Acro Biosystems 41B-H5258) (human, UniProt Q07011 24-186).
T2 construct: Bought protein; not shown: Fc tag
In words: SPR, Biacore 8K, single-cycle kinetics; Fc-tagged ectodomain captured on Protein G chip; 1:1 model. Summed up:
(§1)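 Single-cycle kinetics: Humabody VH constructs injected 90 s at low to high nanomolar concentrations over captured Fc-tagged ectodomains. Surface regenerated with 10 mM glycine pH 1.5. Kinetics fitted to a 1:1 binding model, including two-PD-1-arm constructs.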

For experiment [3], the target named is T3, human CD137 expressed on cells (Jurkat human CD137 NF-kB luciferase reporter cells; human CD8+ T cells) (human, UniProt Q07011 24-255). In words: cell-based or functional assay.
Experiment [4] deals with T3, human CD137 expressed on cells (Jurkat …). The experiment is described as follows: cell-based or functional assay. This is another data set of the same source.
Experiment [5] addresses T4, recombinant Fc-tagged ectodomain of cynomolgus CD137 (R&D S9324-4b) (cynomolgus macaque, UniProt A9YYE7 24-186).
T4 construct: Bought protein; also called Cyno CD137; cynomolgus macaque CD137; not shown: Fc tag and any linker to it
In words: SPR, Biacore 8K, single-cycle kinetics; Fc-tagged ectodomain captured on Protein G chip; 1:1 model. Put shortly: as §1

In experiment [6] the target is T1, recombinant Fc-tagged ectodomain of …. The experiment is described as above. Summed up:
as §1

For experiment [7], the target named is T5, recombinant Fc-tagged ectodomain of cynomolgus PD1 (Acro Biosystems PD1-C5254) (cynomolgus macaque, UniProt B0LAJ3 25-170).
T5 construct: Bought protein; also called Cyno PD1; cynomolgus macaque PD1; not shown: Fc tag and any linker to it
The experiment is described as above. Summed up:
as §1

In experiment [8] the target is T3, human CD137 expressed on cells (Jurkat …). In words: cell-based or functional assay. This is another data set of the same source.

Where a chain is given by its changes, count along the chain named. Numbers in names are those of the source.

B1: TPP-1438 CD137A-6GS-HSA2-6GS-PD138G7(G109D)-6GS-PD138G7(G109D) (bispecific antibody)
chain: EVQLVESGGGLVQPGGSLRLSCAASGFTLSNYWMNWVRQAPGKGLEWVANINQDGSERYYVDSVKGRFTISRDNAKNSLYLQMNSLRAEDTAVYYCARGGEGYGVDHYGLDVSGQGTTVTVSSGGGGSGGGGSGGGGSGGGGSGGGGSGGGGSEVQLVESGGGLVKPGGSLRLSCAASGFTFSNYNMNWVRQAPGKGLEWVSSISSAGTHIYYADSVKGRFTISRDNAKNSLYLQMNSLRAEDTAVYYCARDPHSTGWYKDFDYWGQGTLVTVSSGGGGSGGGGSGGGGSGGGGSGGGGSGGGGSEVQLVESGGGVVRPGGSLRLSCAASGFTFDDYAMSWVRQAPGKGLEWVSGITWNGGSTGYADSVKDRFTISRDNAKNSLYLQMNSLRAEDTALYYCVRDKYSYAWSYDDFDIWGQGTMVTVSSGGGGSGGGGSGGGGSGGGGSGGGGSGGGGSEVQLVESGGGVVRPGGSLRLSCAASGFTFDDYAMSWVRQAPGKGLEWVSGITWNGGSTGYADSVKDRFTISRDNAKNSLYLQMNSLRAEDTALYYCVRDKYSYAWSYDDFDIWGQGTMVTVSS
notes: Single-chain fusion of four VH single domains, two PD-1 arms
Broadly, the Kd is a measure of binding affinity in units of concentration. As a reminder, the koff is the rate constant with which the complex falls apart. What is called kon is a measure of how fast the partners come together. Take B1: in experiment [1], the Kd came out at 0.0951 nM, the koff is 5.02e-05 s⁻¹ and the kon worked out at 527000 M⁻¹ s⁻¹. Besides, in experiment [2], the Kd stood at 0.62 nM, the koff was determined as 0.00011 s⁻¹ and the kon amounted to 500000 M⁻¹ s⁻¹. Moreover, the “Jurkat-CD137/CHO-PD-1 Reporter Assay EC50” value in experiment [3] was 0.00466 nM.

B2: TPP-1439 PD138G7(G109D)-6GS-PD138G7(G109D)-6GS-CD137A-7-6GS-HSA2 (bispecific antibody)
chain: EVQLVESGGGVVRPGGSLRLSCAASGFTFDDYAMSWVRQAPGKGLEWVSGITWNGGSTGYADSVKDRFTISRDNAKNSLYLQMNSLRAEDTALYYCVRDKYSYAWSYDDFDIWGQGTMVTVSSGGGGSGGGGSGGGGSGGGGSGGGGSGGGGSEVQLVESGGGVVRPGGSLRLSCAASGFTFDDYAMSWVRQAPGKGLEWVSGITWNGGSTGYADSVKDRFTISRDNAKNSLYLQMNSLRAEDTALYYCVRDKYSYAWSYDDFDIWGQGTMVTVSSGGGGSGGGGSGGGGSGGGGSGGGGSGGGGSEVQLVESGGGLVQPGGSLRLSCAASGFTLSNYWMNWVRQAPGKGLEWVANINQDGSERYYVDSVKGRFTISRDNAKNSLYLQMNSLRAEDTAVYYCARGGEGYGVDHYGLDVSGQGTTVTVSSGGGGSGGGGSGGGGSGGGGSGGGGSGGGGSEVQLVESGGGLVKPGGSLRLSCAASGFTFSNYNMNWVRQAPGKGLEWVSSISSAGTHIYYADSVKGRFTISRDNAKNSLYLQMNSLRAEDTAVYYCARDPHSTGWYKDFDYWGQGTLVTVSS
notes: as for B1
B2: in experiment [1], the Kd was found to be 0.0683 nM, the off-rate (koff) was found to be 5.12e-05 s⁻¹ and the on-rate (kon) was determined as 750000 M⁻¹ s⁻¹. In experiment [2], the Kd is 0.506 nM, the koff was determined as 0.000107 s⁻¹ and the kon is 800000 M⁻¹ s⁻¹. For the same molecule, the “Jurkat-CD137/CHO-PD-1 Reporter Assay EC50” value in experiment [3] is 0.0145 nM.

B3: TPP-1290 PD138G7(G109D)-6GS-CD137A-6GS-HSA2 (bispecific antibody)
chain: EVQLVESGGGVVRPGGSLRLSCAASGFTFDDYAMSWVRQAPGKGLEWVSGITWNGGSTGYADSVKDRFTISRDNAKNSLYLQMNSLRAEDTALYYCVRDKYSYAWSYDDFDIWGQGTMVTVSSGGGGSGGGGSGGGGSGGGGSGGGGSGGGGSEVQLVESGGGLVQPGGSLRLSCAASGFTLSNYWMNWVRQAPGKGLEWVANINQDGSERYYVDSVKGRFTISRDNAKNSLYLQMNSLRAEDTAVYYCARGGEGYGVDHYGLDVSGQGTTVTVSSGGGGSGGGGSGGGGSGGGGSGGGGSGGGGSEVQLVESGGGLVKPGGSLRLSCAASGFTFSNYNMNWVRQAPGKGLEWVSSISSAGTHIYYADSVKGRFTISRDNAKNSLYLQMNSLRAEDTAVYYCARDPHSTGWYKDFDYWGQGTLVTVSS
Regarding B3, in experiment [4], the “CD8+ T-cell activation assay - IL-2 release, EC50” value was determined as 0.199 nM. Also, the Kd in experiment [5] was found to be 1.03 nM; in experiment [6] it was 7.07 nM; in experiment [2], 0.652 nM; in experiment [7] it was 17.4 nM. Also, the koff in experiment [5] worked out at 0.000255 s⁻¹; in experiment [6], 0.00244 s⁻¹; in experiment [2], 0.000185 s⁻¹; in experiment [7], 0.00539 s⁻¹. For the same molecule, the kon in experiment [5] worked out at 247000 M⁻¹ s⁻¹; in experiment [6] it was 345000 M⁻¹ s⁻¹; in experiment [2], 283000 M⁻¹ s⁻¹; in experiment [7], 310000 M⁻¹ s⁻¹. Besides, in experiment [3], the “Jurkat-CD137/CHO-PD-1 Reporter Assay EC50” value came to 0.02 nM.

B4: TPP-801 PSMA-6GS-CD137-6GS-HSA (bispecific antibody)
chain: EVQLVESGGGVVQPGRSLRLSCAASGFSFSGYGMHWVRQAPGKGLEWVAYISYDGSNKYYADSVKGRFTISRDNSKNTLYLQMNSLRAEDTAVYYCAKDPAWGLRLGESSSYDFDIWGQGTMVTVSSGGGGSGGGGSGGGGSGGGGSGGGGSGGGGSEVQLVESGGGVVQPGGSLRLSCAASGFTFSNYGMHWVRQAPGKGLEWVAVISNDGNTKTYADSVKGRFTISRDNSKNTLYLQMNSLRAEDTAVYYCAQDETTTVTASYYFDYWGQGTLVTVSSGGGGSGGGGSGGGGSGGGGSGGGGSGGGGSEVQLVESGGGLVKPGGSLRLSCAASGFTFSNYNMNWVRQAPGKGLEWVSSISSAGTHIYYADSVKGRFTISRDNAKNSLYLQMNSLRAEDTAVYYCARDPHSTGWYKDFDYWGQGTLVTVSS
In the case of B4, in experiment [8], the “Jurkat-CD137/CHO-PSMA Reporter Assay EC50” value amounted to 1.3 nM.

B5: TPP-799 PSMA-6GS-CD137-6GS-HSA (bispecific antibody)
chain: EVQLVESGGGVVQPGRSLRLSCAASGFSFSGYGMHWVRQAPGKGLEWVAYISYDGSNKYYADSVKGRFTISRDNSKNTLYLQMNSLRAEDTAVYYCAKDPAWGLRLGESSSYDFDIWGQGTMVTVSSGGGGSGGGGSGGGGSGGGGSGGGGSGGGGSEVQLVESGGGVVQPGGSLRLSCAASGFTFSNYGMHWVRQAPGKGLEWVAVISNDGNTKTYADSVKGRFTISRDNSKNTLYLQMNSLRAEDTAVYYCAQDETTTVTASYYFDYWGQGTLVTVSSGGGGSGGGGSGGGGSGGGGSGGGGSGGGGSEVQLVESGGGLVQPGRSLRLSCAASGFTFHHYAMHWVRQAPGKGLEWVSGISWNGNKITYADSVKGRFTISRDNAKNSLYLQMNSLRAEDTALYYCVRDSSLFIVGAPTFEHWGRGTLVTVSS
For B5, in experiment [8], the “Jurkat-CD137/CHO-PSMA Reporter Assay EC50” value came out at 5.6 nM.

B6: TPP-805 PSMA-6GS-CD137-6-6GS-HSA (bispecific antibody)
chain: B5 chain with V168L, T235M, A245T
As to B6, the “Jurkat-CD137/CHO-PSMA Reporter Assay EC50” value in experiment [8] was 16 nM.

B7: TPP-806 PSMA-6GS-CD137-6GS-HSA (bispecific antibody)
chain: B5 chain with V168L, A245T
Regarding B7, the “Jurkat-CD137/CHO-PSMA Reporter Assay EC50” value in experiment [8] was 9.3 nM.

B8: TPP-1246 CD137A-6GS-HSA2-6GS-PD138G7(G109D) (bispecific antibody)
chain: EVQLVESGGGLVQPGGSLRLSCAASGFTLSNYWMNWVRQAPGKGLEWVANINQDGSERYYVDSVKGRFTISRDNAKNSLYLQMNSLRAEDTAVYYCARGGEGYGVDHYGLDVSGQGTTVTVSSGGGGSGGGGSGGGGSGGGGSGGGGSGGGGSEVQLVESGGGLVKPGGSLRLSCAASGFTFSNYNMNWVRQAPGKGLEWVSSISSAGTHIYYADSVKGRFTISRDNAKNSLYLQMNSLRAEDTAVYYCARDPHSTGWYKDFDYWGQGTLVTVSSGGGGSGGGGSGGGGSGGGGSGGGGSGGGGSEVQLVESGGGVVRPGGSLRLSCAASGFTFDDYAMSWVRQAPGKGLEWVSGITWNGGSTGYADSVKDRFTISRDNAKNSLYLQMNSLRAEDTALYYCVRDKYSYAWSYDDFDIWGQGTMVTVSS
As for B8, the “CD8+ T-cell activation assay - IL-2 release, EC50” value in experiment [4] came to 0.176 nM. Besides, the Kd in experiment [5] came out at 0.842 nM; in experiment [6], 8.38 nM; in experiment [2], 0.541 nM; in experiment [7], 20.5 nM. Also, the koff in experiment [5] was determined as 0.000267 s⁻¹; in experiment [6], 0.00202 s⁻¹; in experiment [2], 0.000187 s⁻¹; in experiment [7] it was 0.00464 s⁻¹. Also, the on-rate (kon) stood at 317000 M⁻¹ s⁻¹ in experiment [5], 241000 M⁻¹ s⁻¹ in experiment [6], 345000 M⁻¹ s⁻¹ in experiment [2] and 227000 M⁻¹ s⁻¹ in experiment [7]. For the same molecule, the “Jurkat-CD137/CHO-PD-1 Reporter Assay EC50” value in experiment [3] was found to be 0.0729 nM.
